# T1: UHRF1 delta627-674 (human, UniProt Q96T88 1-793, del627-674)
# T1 sequence: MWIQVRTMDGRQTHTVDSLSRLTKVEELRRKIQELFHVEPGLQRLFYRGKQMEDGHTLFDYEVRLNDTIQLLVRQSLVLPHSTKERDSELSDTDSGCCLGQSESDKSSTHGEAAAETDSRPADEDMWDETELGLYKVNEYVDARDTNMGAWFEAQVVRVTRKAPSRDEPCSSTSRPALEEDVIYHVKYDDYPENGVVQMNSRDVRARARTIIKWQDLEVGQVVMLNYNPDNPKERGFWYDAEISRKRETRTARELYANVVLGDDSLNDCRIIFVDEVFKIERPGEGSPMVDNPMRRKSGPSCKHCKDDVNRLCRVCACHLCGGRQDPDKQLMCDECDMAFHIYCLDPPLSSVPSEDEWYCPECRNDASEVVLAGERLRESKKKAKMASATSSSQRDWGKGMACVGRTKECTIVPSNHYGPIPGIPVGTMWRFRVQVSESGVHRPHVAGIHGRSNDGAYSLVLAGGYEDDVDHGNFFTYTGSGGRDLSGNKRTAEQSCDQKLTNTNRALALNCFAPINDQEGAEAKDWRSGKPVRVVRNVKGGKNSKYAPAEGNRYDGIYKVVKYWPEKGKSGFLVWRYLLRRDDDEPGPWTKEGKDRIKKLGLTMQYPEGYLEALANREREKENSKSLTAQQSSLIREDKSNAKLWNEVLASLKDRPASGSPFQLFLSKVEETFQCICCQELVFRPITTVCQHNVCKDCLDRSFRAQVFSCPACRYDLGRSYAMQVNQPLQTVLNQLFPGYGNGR
# T2: SRA-Spacer-652 (human, UniProt Q96T88 414-652)
# T2 sequence: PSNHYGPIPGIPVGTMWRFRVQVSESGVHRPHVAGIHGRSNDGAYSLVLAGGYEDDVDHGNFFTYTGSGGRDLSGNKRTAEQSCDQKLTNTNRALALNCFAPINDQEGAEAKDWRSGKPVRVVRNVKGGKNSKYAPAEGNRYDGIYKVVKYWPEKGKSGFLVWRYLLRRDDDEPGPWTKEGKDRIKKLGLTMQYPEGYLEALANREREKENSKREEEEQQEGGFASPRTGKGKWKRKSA
# T3: UHRF1 deltaSRA (human, UniProt Q96T88 1-793, del414-617)
# T3 sequence: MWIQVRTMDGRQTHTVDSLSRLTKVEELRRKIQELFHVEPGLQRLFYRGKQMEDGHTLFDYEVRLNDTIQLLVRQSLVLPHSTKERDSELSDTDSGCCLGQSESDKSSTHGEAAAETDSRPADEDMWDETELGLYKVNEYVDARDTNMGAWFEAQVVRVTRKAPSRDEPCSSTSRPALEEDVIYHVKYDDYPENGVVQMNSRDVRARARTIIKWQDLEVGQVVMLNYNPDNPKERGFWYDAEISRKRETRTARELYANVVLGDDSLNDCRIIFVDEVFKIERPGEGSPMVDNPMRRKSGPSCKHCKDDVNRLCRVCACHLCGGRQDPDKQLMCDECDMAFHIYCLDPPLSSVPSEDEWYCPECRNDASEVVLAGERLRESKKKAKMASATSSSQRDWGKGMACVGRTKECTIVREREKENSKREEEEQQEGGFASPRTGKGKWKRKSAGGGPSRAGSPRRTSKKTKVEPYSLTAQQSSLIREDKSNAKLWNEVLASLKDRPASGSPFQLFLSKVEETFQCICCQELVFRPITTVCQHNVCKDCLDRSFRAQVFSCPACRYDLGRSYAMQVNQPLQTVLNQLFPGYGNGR
# T4: SRA-Spacer (human, UniProt Q96T88 414-674)
# T4 sequence: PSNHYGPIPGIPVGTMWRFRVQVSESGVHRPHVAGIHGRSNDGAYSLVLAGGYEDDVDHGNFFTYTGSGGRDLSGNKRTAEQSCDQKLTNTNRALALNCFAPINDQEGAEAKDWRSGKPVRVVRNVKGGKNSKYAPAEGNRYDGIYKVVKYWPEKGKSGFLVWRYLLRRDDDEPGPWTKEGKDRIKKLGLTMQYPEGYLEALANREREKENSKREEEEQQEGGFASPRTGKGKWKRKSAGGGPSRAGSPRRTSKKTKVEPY
# T5: SRA (human, UniProt Q96T88 414-617)
# T5 sequence: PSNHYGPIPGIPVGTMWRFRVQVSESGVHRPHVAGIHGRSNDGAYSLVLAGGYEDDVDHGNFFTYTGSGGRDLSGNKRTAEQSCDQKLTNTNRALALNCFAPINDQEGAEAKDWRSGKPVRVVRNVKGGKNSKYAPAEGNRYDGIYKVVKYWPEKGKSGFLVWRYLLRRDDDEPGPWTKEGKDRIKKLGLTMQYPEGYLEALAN
# B1: FAM-12bp-HM-DNA (dsDNA)
# DNA 1: CCATGCGCTGAC
# DNA 2: GTCAGCGCATGG
# modifications: 5-methyl-dC at position 6 of strand 2 (GTCAGXGCATGG)
# Experiments:
# [1] = biological target: T1, UHRF1 delta627-674; assay: FP; ITC: 10 mM HEPES pH 8.0, 100 mM NaCl, 18 C; EMSA: 20 mM HEPES pH 7.5, 100 mM NaCl, 8% glycerol, 1 mM DTT, on ice; pull-down: 20 mM HEPES-NaOH pH 8.0, 100 mM NaC
# [2] = biological target: T2, SRA-Spacer-652; assay: as above
# [3] = biological target: T3, UHRF1 deltaSRA; assay: FP; not detectable; ITC: 10 mM HEPES pH 8.0, 100 mM NaCl, 18 C; EMSA: 20 mM HEPES pH 7.5, 100 mM NaCl, 8% glycerol, 1 mM DTT, on ice; pull-down: 20 mM HEPES-NaOH pH 8.0, 100 mM NaC
# [4] = biological target: T4, SRA-Spacer; assay: FP; DNA length series; ITC: 10 mM HEPES pH 8.0, 100 mM NaCl, 18 C; EMSA: 20 mM HEPES pH 7.5, 100 mM NaCl, 8% glycerol, 1 mM DTT, on ice; pull-down: 20 mM HEPES-NaOH pH 8.0, 100 mM NaC
# [5] = biological target: T4, SRA-Spacer; assay: FP; 50 mM NaCl; ITC: 10 mM HEPES pH 8.0, 100 mM NaCl, 18 C; EMSA: 20 mM HEPES pH 7.5, 100 mM NaCl, 8% glycerol, 1 mM DTT, on ice; pull-down: 20 mM HEPES-NaOH pH 8.0, 100 mM NaC
# [6] = biological target: T5, SRA; assay: as above
binder,measurement,setting,value
B1,Kd,[1],4940 ± 1090 nM
same,Kd,[2],1870 ± 330 nM
same,binding result,[3],no binding
same,Kd,[4],340 ± 90 nM
same,Kd,[5],24 ± 3.7 nM
same,Kd,[6],150 ± 18 nM
